Laboratory results reported in PMC10567574, “piRNA processing by a trimeric Schlafen-domain nuclease” (Nature, 2023).
Numbering of substitutions follows the chain as printed. In names and notes the source's numbering stands.

B1: TOFU-6 eTUDOR domain (residues 119-314) (domain or fragment, C. elegans, UniProt Q09293 119-314, looked up)
chain: VLLSSSWLPLNKDIEVEVVDYLPSSSVAPDLFALTLLRINDSSMKEKYDSMHEKMNAYAQIVPFDSELEIGYDGVFRDAPRSVRRVRRISATKLYLVDFGKIINYEKAKCFQLPKVFQSMPTRVSLCGLDGLTWSPVAIPSFDNIREVVKKWGQMENSTLHAMACGFQGSINMINLFCGKSILADRLQRKGVCEYL
notes: TOFU-6, C. elegans, eTUDOR domain, residues 119-314; also called extended TUDOR domain of TOFU-6
B2: TOFU-1^82-172 (domain or fragment, C. elegans, UniProt O17608 82-172, looked up)
chain: EVEESLLDALLGKALAGDQMNSRIEGLFEDLDSSVEPDIIDRSELEDVDSGISVGAVSSSSAETQASDAKCKNKDAFDMSSLKKYMQYITE
notes: also called TOFU-1^N; source: E. coli BL21(DE3) derivative, purified
B3: TOFU-1^82-172 L88R/L92R (domain or fragment, C. elegans, UniProt O17608 82-172, looked up)
chain: B2 chain with L7R, L11R
notes: source: purified recombinant
B4: TOFU-1^W-82-113 (peptide)
chain: WEVEESLLDALLGKALAGDQMNSRIEGLFEDLD
notes: tryptophan residue added at the N terminus so that the concentration can be determined; Used for ITC and crystallization; also called TOFU-1^pep; TOFU-1 peptide; source: purified (engineered TOFU-1 peptide)
B5: TOFU-1^pep (residues 82-113) (peptide, UniProt O17608 82-113, looked up)
chain: EVEESLLDALLGKALAGDQMNSRIEGLFEDLD
notes: also called first helix of the N-terminal part of TOFU-1; source: E. coli BL21(DE3) derivative, purified
B6: GST-tagged TOFU-1^82-113 (peptide, UniProt O17608 82-113, looked up)
chain: B5 chain
notes: also called TOFU-1^pep; source: purified recombinant; not shown: GST, N-terminal, kept

Key:
Settings in all cases: both partners purified
MBP-tagged TOFU-1^82-373 = target: T1, MBP-tagged TOFU-1^82-373 (C. elegans, UniProt O17608 82-373); experiment: pull-down; purified MBP-tagged TOFU-1 as bait on amylose beads, incubated with excess prey; 20 mM Tris/HCl pH 7.5, 150 mM NaCl, 10% glycerol, 0.05% NP40, 1 mM DTT; SDS-PAGE with Coomassie staining
T1 construct: TOFU-1 (SLFL-1), C. elegans, residues 82-373; source: E. coli BL21(DE3) derivative, purified; not shown: MBP, N-terminal, kept
T1 sequence (looked up): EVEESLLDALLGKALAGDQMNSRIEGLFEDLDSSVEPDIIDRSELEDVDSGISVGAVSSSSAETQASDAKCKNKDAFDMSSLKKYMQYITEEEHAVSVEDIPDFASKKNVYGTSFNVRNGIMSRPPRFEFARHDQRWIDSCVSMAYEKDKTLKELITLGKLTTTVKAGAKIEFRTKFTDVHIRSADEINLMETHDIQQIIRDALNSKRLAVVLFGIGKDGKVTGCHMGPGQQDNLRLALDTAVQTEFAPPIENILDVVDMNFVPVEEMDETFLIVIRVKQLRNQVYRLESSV

TOFU-6^eTUDOR V266E = target: T2, TOFU-6^eTUDOR V266E (C. elegans, UniProt Q09293 119-314, V266E); experiment: SEC; purified proteins alone or mixed at 20-40 uM, 1 h on ice; Superdex 200 Increase 3.2/300 in 20 mM Tris/HCl pH 7.5, 150 mM NaCl, 2 mM DTT; elution volumes compared, peak fractions on SDS-PAGE
T2 construct: TOFU-6, C. elegans, eTUDOR domain (residues 119-314 as stated for TOFU-6^eTUDOR) with V266E; source: purified recombinant
T2 sequence (looked up): B1 chain with V148E

[1] = target: B1; experiment: as above
[2] = target: B1; experiment: ITC; TOFU-6^eTUDOR (injectant, 400-450 uM) titrated into TOFU-1^W-82-113 (cell, 45-48 uM); 25 C; 20 mM Tris, 250 mM NaCl, 0.5 mM TCEP, pH 7.50; mean of three experiments
MBP-TOFU-6^eTUDOR domain = target: T3, MBP-TOFU-6^eTUDOR domain (C. elegans, UniProt Q09293 119-314); experiment: pull-down; purified MBP-TOFU-6^eTUDOR constructs as bait (MBP pull-down) and GST-tagged TOFU-1 constructs as bait (GST pull-down); 20 mM Tris/HCl pH 7.5, 150 mM NaCl, 10% glycerol, 0.05% NP40, 1 mM DTT; SDS-PAGE with Coomassie staining
T3 construct: TOFU-6, C. elegans, eTUDOR domain (residues 119-314 as stated for TOFU-6^eTUDOR); source: purified recombinant
T3 sequence (looked up): B1 chain

Does B1 bind (MBP-tagged TOFU-1^82-373)?
Result: binds

Does B2 bind (TOFU-6^eTUDOR V266E)?
Result: binds

Does B2 bind [1]?
Result: binds

Does B3 bind [1]?
Result: binds

For B4, which Kd [2] is on record?
The Kd was ~20 µM.

Does B5 bind [1]?
Result: binds

Does B6 bind (MBP-TOFU-6^eTUDOR domain)?
Result: binds
